Source: article PMC5641968 (2017)
Where two headings read alike, the source gives them in different places.

Tests used:
Assay in all cases: biolayer interferometry
[1] = molecular target: calmodulin (UniProt P0DP23)
[2] = molecular target: calmodulin (UniProt P0DP23); remark: listed apart in the source
[3] = molecular target: calmodulin (UniProt P0DP23); remark: listed apart in the source

Kd [1]: 645 pM
Kd [2]: 650 pM
Kd [3]: 500 pM
B1: eNOS (protein)
chain: GNLKSVGQEPGPPCGLGLGLGLGLCGKQGPASPAPEPSRAPAPATPHAPDHSPAPNSPTLTRPPEGPKFPRVKNWELGSITYDTLCAQSQQDGPCTPRCCLGSLVLPRKLQTRPSPGPPPAEQLLSQARDFINQYYSSIKRSGSQAHEERLQEVEAEVASTGTYHLRESELVFGAKQAWRNAPRCVGRIQWGKLQVFDARDCSSAQEMFTYICNHIKYATNRGNLRSAITVFPQRAPGRGDFRIWNSQLVRYAGYRQQDGSVRGDPANVEITELCIQHGWTPGNGRFDVLPLLLQAPDEAPELFVLPPELVLEVPLEHPTLEWFAALGLRWYALPAVSNMLLEIGGLEFSAAPFSGWYMSTEIGTRNLCDPHRYNILEDVAVCMDLDTRTTSSLWKDKAAVEINLAVLHSFQLAKVTIVDHHAATVSFMKHLDNEQKARGGCPADWAWIVPPISGSLTPVFHQEMVNYILSPAFRYQPDPWKGSATKGAGITRKKTFKEVANAVKISASLMGTLMAKRVKATILYASETGRAQSYAQQLGRLFRKAFDPRVLCMDEYDVVSLEHEALVLVVTSTFGNGDPPENGESFAAALMEMSGPYNSSPRPEQHKSYKIRFNSVSCSDPLVSSWRRKRKESSNTDSAGALGTLRFCVFGLGSRAYPHFCAFARAVDTRLEELGGERLLQLGQGDELCGQEEAFRGWAKAAFQASCETFCVGEEAKAAAQDIFSPKRSWKRQRYRLSTQAEGLQLLPGLIHVHRRKMFQATVLSVENLQSSKSTRATILVRLDTAGQEGLQYQPGDHIGICPPNRPGLVEALLSRVEDPPPPTESVAVEQLEKGSPGGPPPSWVRDPRLPPCTLRQALTFFLDITSPPSPRLLRLLSTLAEEPSEQQELETLSQDPRRYEEWKWFRCPTLLEVLEQFPSVALPAPLLLTQLPLLQPRYYSVSSAPNAHPGEVHLTVAVLAYRTQDGLGPLHYGVCSTWLSQLKTGDPVPCFIRGAPSFRLPPDPYVPCILVGPGTGIAPFRGFWQERLHDIESKGLQPAPMTLVFGCRCSQLDHLYRDEVQDAQERGVFGRVLTAFSREPDSPKTYVQDILRTELAAEVHRVLCLERGHMFVCGDVTMATSVLQTVQRILATEGDMELDEAGDVIGVLRDQQRYHEDIFGLTLRTQEVTSRIRTQSFSLQERHLRGAVPWAFDPPGPDTPGP
modifications: Ca2+
